Columns and labels:
human ADAMTS5 [1] = target: T1, human ADAMTS5 (human, UniProt Q9UNA0 262-622, limits assumed); assay: Biacore, mAb down, no avidity; Biacore, mAb down, no avidity
T1 construct: Octet and ELISA used 'recombinant human ADAMTS5'; also called recombinant human ADAMTS5; ADAMTS5 (R&D Systems 2198-AD)
T1 sequence: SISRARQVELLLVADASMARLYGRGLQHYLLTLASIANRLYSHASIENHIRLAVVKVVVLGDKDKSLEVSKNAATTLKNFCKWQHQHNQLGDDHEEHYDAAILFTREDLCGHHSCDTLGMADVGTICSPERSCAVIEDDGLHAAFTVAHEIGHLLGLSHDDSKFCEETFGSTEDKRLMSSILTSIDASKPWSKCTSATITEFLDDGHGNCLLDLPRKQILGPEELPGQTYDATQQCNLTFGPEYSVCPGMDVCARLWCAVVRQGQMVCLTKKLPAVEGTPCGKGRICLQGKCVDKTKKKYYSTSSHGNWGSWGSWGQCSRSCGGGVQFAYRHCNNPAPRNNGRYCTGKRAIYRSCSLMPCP

human ADAMTS5 [2] = target: T1, human ADAMTS5; assay: Biacore, mAb down, no avidity
human ADAMTS5 [3] = target: T1, human ADAMTS5; assay: Biacore, mAb from culture supernatant captured on anti-human IgG, ADAMTS5 (R&D 2198-AD) at 64 nM, 1:1 fit
Experimental: Anti-human IgG (Biacore™, BR-1008-39) was immobilized on a CM5 chip by primary amine coupling. This surface was then used to capture the humanized antibodies, ADAMTS5 (R&D Systems 2198-AD) was then passed over the captured antibody at a single concentration of 64 nM, regeneration was carried out using 100 mM phosphoric acid followed by 3M MgCl₂. The binding curves were double referenced with buffer injection (i.e. 0 nM) and the data was fitted to the T100 analysis software using the 1:1 model. The run was carried out at 25° C., using HBS-EP as the running buffer. All antibodies were captured from tissue culture supernatants unless specified.

human ADAMTS5 [4] = target: T1, human ADAMTS5; assay: Octet QK, antigen down, incl avidity

kon (human ADAMTS5 [1]): 489000 M⁻¹ s⁻¹
Kd (human ADAMTS5 [2]): 0.085 nM
Kd (human ADAMTS5 [3]): 0.0848 nM
koff (human ADAMTS5 [3]): 4.15e-05 s⁻¹
kon (human ADAMTS5 [3]): 489000 M⁻¹ s⁻¹
Kd (human ADAMTS5 [4]): 0.0383 nM
B1: BPC1659 (antibody, human IgG1, kappa)
heavy: not shown
light: DIQMTQSPSSLSASVGDRVTITCKASQSVGTTIVWYQQKPGKAPKLLIYSASNRHTGVPSRFSGSGSGTDFTLTISSLQPEDFATYYCQQYTSYPFTFGQGTKLEIKRTVAAPSVFIFPPSDEQLKSGTASVVCLLNNFYPREAKVQWKVDNALQSGNSQESVTEQDSKDSTYSLSSTLTLSKADYEKHKVYACEVTHQGLSSPVTKSFNRGEC
notes: Humanized, human gamma 1 wild type / kappa, with a fully functional Fc; also called 12F4 H4L0; 12F4 H4L0 IgG1 wt

— patent US20120095193A1 (published 2012)
